From patent US20090324601A1 (published 2009)
Where “and” joins values, the source holds several entries; their conditions need not be identical. Identical values can stand only once.

Tests used:
[1] = target: T1, murine PDGFRa on NIH3T3 cells (murine, UniProt P26618 25-1089); test: FACS on NIH3T3 cells, goat anti-human IgG Cy5
T1 construct: whole, on cells; also called mouse PDGFR-alpha

[2] = target: T2, PDGFR-alpha on human osteosarcoma MG-63 cells (human, UniProt P16234 24-1089); test: cell-based or functional assay
T2 sequence (P16234 24-1089): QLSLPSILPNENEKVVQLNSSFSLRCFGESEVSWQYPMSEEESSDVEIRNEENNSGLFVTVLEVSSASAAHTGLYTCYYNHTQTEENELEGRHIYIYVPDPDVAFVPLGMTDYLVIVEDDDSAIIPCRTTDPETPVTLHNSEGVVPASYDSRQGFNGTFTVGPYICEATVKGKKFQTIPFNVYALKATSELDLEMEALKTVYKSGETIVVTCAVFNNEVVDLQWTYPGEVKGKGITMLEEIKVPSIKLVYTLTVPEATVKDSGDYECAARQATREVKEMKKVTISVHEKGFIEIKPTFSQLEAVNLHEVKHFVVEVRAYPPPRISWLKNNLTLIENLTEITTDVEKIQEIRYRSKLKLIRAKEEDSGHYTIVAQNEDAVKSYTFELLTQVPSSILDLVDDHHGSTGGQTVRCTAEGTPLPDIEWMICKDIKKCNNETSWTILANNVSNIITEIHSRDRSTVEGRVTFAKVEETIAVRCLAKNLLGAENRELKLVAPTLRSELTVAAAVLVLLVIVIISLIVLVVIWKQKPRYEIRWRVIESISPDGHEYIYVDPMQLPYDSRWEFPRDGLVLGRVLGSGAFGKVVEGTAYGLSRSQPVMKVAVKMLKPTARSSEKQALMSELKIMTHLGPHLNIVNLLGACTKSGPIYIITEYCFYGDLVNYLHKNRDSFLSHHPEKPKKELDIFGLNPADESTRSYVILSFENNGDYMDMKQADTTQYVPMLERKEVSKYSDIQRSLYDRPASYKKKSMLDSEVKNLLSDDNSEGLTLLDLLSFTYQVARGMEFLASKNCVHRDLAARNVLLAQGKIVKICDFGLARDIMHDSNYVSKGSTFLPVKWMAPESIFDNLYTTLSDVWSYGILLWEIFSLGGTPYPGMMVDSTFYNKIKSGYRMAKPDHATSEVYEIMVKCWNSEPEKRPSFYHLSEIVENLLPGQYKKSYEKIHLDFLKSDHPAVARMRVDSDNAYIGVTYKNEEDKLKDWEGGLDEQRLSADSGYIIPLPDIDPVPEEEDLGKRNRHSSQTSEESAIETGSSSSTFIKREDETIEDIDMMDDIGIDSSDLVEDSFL

[3] = target: T3, Recombinant human sPDGFR-alpha (R&D catalog# 322-PR/CF) (human, UniProt P16234 24-528); test: soluble PDGFRa binding ELISA, plate coated with recombinant human PDGFR-alpha
T3 construct: extracellular domain; Bought reagent; also called soluble PDGFRa; recombinant soluble PDGFR-alpha extracellular domain
T3 sequence (P16234 24-528): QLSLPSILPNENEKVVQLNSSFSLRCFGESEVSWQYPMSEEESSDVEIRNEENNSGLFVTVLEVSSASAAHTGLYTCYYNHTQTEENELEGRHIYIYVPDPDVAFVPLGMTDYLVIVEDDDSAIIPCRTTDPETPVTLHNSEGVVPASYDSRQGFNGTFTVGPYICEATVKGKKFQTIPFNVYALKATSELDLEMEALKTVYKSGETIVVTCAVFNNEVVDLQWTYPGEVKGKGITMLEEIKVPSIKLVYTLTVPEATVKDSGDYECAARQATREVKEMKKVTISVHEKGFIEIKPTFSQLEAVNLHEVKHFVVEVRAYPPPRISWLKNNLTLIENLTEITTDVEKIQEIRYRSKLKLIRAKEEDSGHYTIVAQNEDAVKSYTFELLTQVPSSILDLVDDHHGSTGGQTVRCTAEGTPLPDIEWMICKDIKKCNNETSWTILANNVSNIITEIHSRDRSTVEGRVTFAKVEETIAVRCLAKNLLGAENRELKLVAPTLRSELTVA

[4] = target: T2, PDGFR-alpha on human osteosarcoma MG-63 …; test: cell-based or functional assay; remark: listed apart in the source
[5] = target: T3, Recombinant human sPDGFR-alpha (R&D …); test: Biacore T100 SPR, 22 C, mAb immobilised on CM5, sPDGFR-alpha injected, 1:1 fit
[6] = target: T4, PDGFR-alpha on MG-63 cells (human, UniProt P16234 24-1089); test: cell-based or functional assay
T4 sequence (P16234 24-1089): as the sequence (P16234 24-1089) above

[7] = target: T4, PDGFR-alpha on MG-63 cells; test: cell-based or functional assay; remark: listed apart in the source
[8] = target: T4, PDGFR-alpha on MG-63 cells; test: FACS titration on MG-63 cells expressing PDGFR-alpha, 4 °C, Cy5 secondary antibody, nonlinear fit of geometric mean fluorescence
[9] = target: T5, Mouse PDGFRa on NIH3T3 cells (mouse, UniProt P26618 25-1089); test: FACS on NIH3T3 cells, 10 ug/ml antibody
T5 construct: whole, on cells; also called endogenous PDGFRa of NIH3T3 murine fibroblasts
T5 sequence (P26618 25-1089): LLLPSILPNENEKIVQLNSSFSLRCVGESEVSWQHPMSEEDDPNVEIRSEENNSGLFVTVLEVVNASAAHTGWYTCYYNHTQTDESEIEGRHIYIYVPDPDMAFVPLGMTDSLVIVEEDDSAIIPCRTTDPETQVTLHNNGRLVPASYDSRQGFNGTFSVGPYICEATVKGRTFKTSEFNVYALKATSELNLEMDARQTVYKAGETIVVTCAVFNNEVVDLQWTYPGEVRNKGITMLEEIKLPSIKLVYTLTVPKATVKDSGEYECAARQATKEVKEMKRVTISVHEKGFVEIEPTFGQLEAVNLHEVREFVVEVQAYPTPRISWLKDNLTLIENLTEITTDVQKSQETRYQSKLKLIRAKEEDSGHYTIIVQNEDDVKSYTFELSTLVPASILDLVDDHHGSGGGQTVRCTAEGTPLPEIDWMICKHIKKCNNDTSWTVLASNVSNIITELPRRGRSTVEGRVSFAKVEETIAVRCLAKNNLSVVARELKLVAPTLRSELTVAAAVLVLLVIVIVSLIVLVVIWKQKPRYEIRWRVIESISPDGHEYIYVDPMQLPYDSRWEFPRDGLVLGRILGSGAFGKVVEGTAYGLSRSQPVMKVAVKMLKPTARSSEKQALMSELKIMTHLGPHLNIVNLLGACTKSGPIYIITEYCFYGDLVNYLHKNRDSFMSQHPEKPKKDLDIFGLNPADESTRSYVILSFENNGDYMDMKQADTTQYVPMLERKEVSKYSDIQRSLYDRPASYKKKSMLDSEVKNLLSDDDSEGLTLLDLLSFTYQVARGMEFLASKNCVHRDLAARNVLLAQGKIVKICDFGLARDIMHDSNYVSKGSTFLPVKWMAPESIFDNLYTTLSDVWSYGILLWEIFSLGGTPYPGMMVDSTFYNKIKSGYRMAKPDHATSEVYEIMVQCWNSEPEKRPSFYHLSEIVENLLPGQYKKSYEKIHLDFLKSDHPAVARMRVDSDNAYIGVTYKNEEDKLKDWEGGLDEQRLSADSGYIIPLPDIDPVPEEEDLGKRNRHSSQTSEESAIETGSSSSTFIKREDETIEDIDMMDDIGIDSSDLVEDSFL

c-kit = c-kit (UniProt P10721 26-520, limits assumed); test: method not described
Sequence of c-kit (P10721 26-520 limits assumed): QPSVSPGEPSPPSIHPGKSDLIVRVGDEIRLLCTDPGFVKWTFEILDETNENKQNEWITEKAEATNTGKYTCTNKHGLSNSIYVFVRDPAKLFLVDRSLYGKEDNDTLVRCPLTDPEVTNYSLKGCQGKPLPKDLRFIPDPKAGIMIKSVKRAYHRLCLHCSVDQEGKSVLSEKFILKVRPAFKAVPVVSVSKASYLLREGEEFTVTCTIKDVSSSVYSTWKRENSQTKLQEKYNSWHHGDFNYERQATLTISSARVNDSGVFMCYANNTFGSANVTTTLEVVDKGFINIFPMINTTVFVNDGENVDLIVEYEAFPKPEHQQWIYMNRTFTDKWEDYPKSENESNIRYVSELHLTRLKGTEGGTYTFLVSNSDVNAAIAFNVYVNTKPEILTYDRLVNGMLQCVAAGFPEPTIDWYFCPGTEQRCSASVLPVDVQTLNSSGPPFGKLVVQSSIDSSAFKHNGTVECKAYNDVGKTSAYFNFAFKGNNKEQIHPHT

PDGFR-beta = PDGFR-beta (UniProt P09619 33-530, limits assumed); test: method not described
Sequence of PDGFR-beta (P09619 33-530 limits assumed): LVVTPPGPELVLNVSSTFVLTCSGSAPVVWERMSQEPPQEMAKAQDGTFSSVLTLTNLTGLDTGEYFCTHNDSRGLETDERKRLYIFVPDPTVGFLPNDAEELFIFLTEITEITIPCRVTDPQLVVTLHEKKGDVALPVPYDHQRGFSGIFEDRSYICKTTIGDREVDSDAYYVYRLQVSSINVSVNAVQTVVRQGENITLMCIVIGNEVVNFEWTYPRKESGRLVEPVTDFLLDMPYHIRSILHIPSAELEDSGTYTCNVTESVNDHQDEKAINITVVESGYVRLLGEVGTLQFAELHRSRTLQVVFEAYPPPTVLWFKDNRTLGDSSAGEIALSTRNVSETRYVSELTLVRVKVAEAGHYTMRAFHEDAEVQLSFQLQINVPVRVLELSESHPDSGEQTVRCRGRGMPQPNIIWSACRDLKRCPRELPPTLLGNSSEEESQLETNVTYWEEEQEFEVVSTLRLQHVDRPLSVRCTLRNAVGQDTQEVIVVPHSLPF

FLT3 = FLT3 (UniProt P36888 27-541, limits assumed); test: method not described
CSF-1R = CSF-1R (UniProt P07333 20-512, limits assumed); test: method not described
Sequence of CSF-1R (P07333 20-512 limits assumed): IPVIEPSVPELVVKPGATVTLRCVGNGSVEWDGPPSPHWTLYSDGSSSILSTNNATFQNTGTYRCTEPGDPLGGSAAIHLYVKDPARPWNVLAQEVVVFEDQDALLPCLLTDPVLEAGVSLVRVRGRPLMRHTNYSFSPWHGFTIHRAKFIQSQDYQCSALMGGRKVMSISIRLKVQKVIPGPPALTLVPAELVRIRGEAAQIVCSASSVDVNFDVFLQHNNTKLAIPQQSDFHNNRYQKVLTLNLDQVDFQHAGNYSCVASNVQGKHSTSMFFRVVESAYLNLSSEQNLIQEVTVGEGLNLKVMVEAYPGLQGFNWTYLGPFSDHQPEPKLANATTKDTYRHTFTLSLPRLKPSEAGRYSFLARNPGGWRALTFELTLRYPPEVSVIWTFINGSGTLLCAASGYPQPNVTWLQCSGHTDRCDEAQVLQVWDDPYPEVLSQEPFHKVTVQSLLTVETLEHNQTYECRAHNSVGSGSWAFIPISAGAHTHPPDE

[10] = target: T2, PDGFR-alpha on human osteosarcoma MG-63 …; test: FACS titration on MG-63 cells, 4 C, Cy5 goat anti-human detection

T1 sequence (P26618 25-1089): as the sequence (P26618 25-1089) above

Binder | binding result [1] | Proliferation Assay: IC50 ng/ml (1-6-06) [2] | Proliferation Assay: IC50 ng/ml (1-23-06) [2] | pTyr Assay: % Inhibition @ 2 µg/ml [2] | Kd [5] | koff [5] | kon [5] | PROLIFERATION ASSAY: MG-63 CELLS, IC50 [6] | Average pTyr Inhibition [7] | Kd [8] | Proliferation Assay: IC50 (1-6-06) [2] | Proliferation Assay: IC50 (1-23-06) [2] | further results
2.175.3 variant A (antibody, V domains shown) VH: QVQLVESGGGLVKPGGSLRLSCAASGFTFSDYYMHWIRQAPGKGLEWVSYISRSGSLIYYVDSVKGRFTISRDNAKNSLYLQMNSLRAEDTAVYYCARGGPYSGSPFDYWGQGTLVTVSS VL: DIQMTQSPSSLSASVGDRVTITCRPSQRISRYLNWYQQKPGKAPKLLIYAASSLPSGVPSRFSGSGSGTDFTLTISSLQPEDFATYYCQQSYSTPPWTFGQGTKVEIK | – | – | – | – | 0.0071 nM | 2.53e-06 s⁻¹ | 355000 M⁻¹ s⁻¹ | – | – | – | – | – | IC50 [3]: 0.046 µg/mL; PTYR Assay IC50 [4]: 0.029 µg/mL
2.175.3 (antibody, V domains shown) VH: QVHLVESGGGLVKPGGSLRLSCAASGFTFSDYYMHWIRQAPGKGLEWVSYISRSGSLIYYVDSVKGRFTISRDNAKNSLNLQMNSLRAEDTAVYYCARGGPYSGSPFDYWGQGTLVTVSS VL: DIQMTQSPSSLSASVGDRVTITCRPSQRISRYLNWYQQKPGKAPKFLIYAASSLPSGVPSRFSGSGSGTDFTLTISTLQPEDFATYYCQQSYSTPPWTFGQGTKVEIK | – | – | – | – | – | – | – | 0.37 nM | 99% | 0.328 nM | – | – | –
2.175.3 (antibody, V domains shown, Variable regions only) VH: QVHLVESGGGLVKPGGSLRLSCAASGFTFSDYYMHWIRQAPGKGLEWVSYISRSGSLIYYVDSVKGRFTISRDNAKNSLNLQMNSLRAEDTAVYYCARGGPYSGSPFDYWGQGTLVTVSS VL: DIQMTQSPSSLSASVGDRVTITCRPSQRISRYLNWYQQKPGKAPKFLIYAASSLPSGVPSRFSGSGSGTDFTLTISTLQPEDFATYYCQQSYSTPPWTFGQGTKVEIK | – | – | – | – | – | – | – | – | – | – | – | – | binding result [9]: binds; binding result (c-kit): no binding; binding result (PDGFR-beta): no binding; binding result (FLT3): no binding; binding result (CSF-1R): no binding
2.998.2 (antibody, V domains shown, identified by its values; also called mAb 2.998.2) VH: QLQLQESGPGLVKPSETLSLTCTVSGDSISSFIYYWGWIRQPPGKGLEWIGTIYYSGSTYYNPSLKSRVTISVDTSKNQFSLKLRSVTAADTAVYYCARHHWVFDYWGQGTQVTVSS VL: DIVLTQFPDFQSVTPKEKVTITCRASQVIGSSLHWYQQKPDQSPKLLIKYASQSFSGVPSRFSGSGSGTDFTLTINSLEVEDAATYYCHQSTILPWTFGQGTKVEVK | no binding (tested: 10 ug/ml) | 308 ng/mL | 316 ng/mL | 99% | 0.164 nM | 4.89e-05 s⁻¹ | 298000 M⁻¹ s⁻¹ | – | – | – | 2.05 nM | 2.1 nM | Kd [10]: 0.057 nM
2.84.3 (antibody, V domains shown) VH: QLQLQESGPGLVKPSETLSLTCTVSGGFISSSSYYWGWIRQPPGKGLEWIGTIYYSGTTYYNSSLKSRVTISVDTSQNQFSLKLSSVTAADTAVYYCARHHWVFDYWGQGTLVTVSS VL: EVVLTQSPDFQSVTPKEKITITCRASQIIGTSLHWYQKKPDQSPKLLIKYASQSFSGVPSRFSGSGSGTEFTLTINSLEAEDTATYYCHQSTNLPWTFGQGTKVEIK [2.84.3, listing 1 of 2 here] | no binding (tested: 10 ug/ml) | 192 ng/mL | 481 ng/mL | 98% | – | – | – | – | – | – | 1.3 nM | 3.2 nM | Kd [10]: 0.227 nM
2.84.3 (antibody, V domains shown) VH: QLQLQESGPGLVKPSETLSLTCTVSGGFISSSSYYWGWIRQPPGKGLEWIGTIYYSGTTYYNSSLKSRVTISVDTSQNQFSLKLSSVTAADTAVYYCARHHWVFDYWGQGTLVTVSS VL: EVVLTQSPDFQSVTPKEKITITCRASQIIGTSLHWYQKKPDQSPKLLIKYASQSFSGVPSRFSGSGSGTEFTLTINSLEAEDTATYYCHQSTNLPWTFGQGTKVEIK [2.84.3, listing 2 of 2 here] | – | – | – | – | – | – | – | 481 ng/ml and 3.2 nM | 98% | 0.227 nM | – | – | –
2.449.1 variant A (antibody, V domains shown, also called 2.449.1.3 Variant A; 2.449.1.3 variant A) VH: QVQLVESGGGLVKPGGSLRLSCAASGFTFSDYYMNWIRQAPGKGLEWVSYISSSGSIIYYADSVKGRFTISRDNAKNSLYLQMNSLRAEDTAVYYCAREGRIAARGMDVWGQGTTVTVSS VL: DIQMTQSPSSLSASVGDRVSITCRPSQSFSRYINWYQQKPGKAPKLLIYAASSLVGGVPSRFSGSGSGTDFTLTISSLQPEDFATYYCQQTYSNPPITFGQGTRLEIK | – | – | – | – | 0.0086 nM | 3.8e-06 s⁻¹ | 440000 M⁻¹ s⁻¹ | – | – | – | – | – | IC50 [3]: 0.045 µg/mL; PTYR Assay IC50 [4]: 0.031 µg/mL
2.449.1.3 (antibody, V domains shown, also called 2.449.1.3 (control)) VH: QVQLVESGGGLVKPGGSLRLSCAASGFTFSDYYMNWIRQAPGKGLEWVSYISSSGSIIYYADSVKGRFTISRDNAKNSLYLQMNSLRAEDTAVYYCAREGRIAARGMDVWGQGTTVTVSS VL: DIQMTQSPSSLSASVGDRVSITCRPSQSFSRYINWYQQKPGKAPKLLIHAASSLVGGVPSRFSGSGSGTDFTLTISSLQPEDFATYYCQQTYSNPPITFGQGTRLEMK | – | – | – | – | – | – | – | 1.57 nM | 99% | 0.052 nM and 0.053 nM | – | – | –
2.1623.2 (antibody, V domains shown, Variable regions only) VH: QVQLVESGGGLVKPGGSLRLSCAASGFTFSDYYMNWIRQAPGKGLEWVSFISSSGSTIYYADSVKGRFTISRDNAKNSLYLQMNSLRAEDTAVYYCARDGHIAARGMDVWGQGTTVTVSS VL: DIQMTQSPSSLSASVGDRVTITCRASQSFSRYINWYQQKPGKAPKLLIYAASSLQGGVPSRFSGSGSGTDFTLAISSLQPEDFATYYCQQTYSTPPITFGQGTRLEIK | – | – | – | – | – | – | – | – | – | – | – | – | binding result [9]: binds; binding result (c-kit): no binding; binding result (PDGFR-beta): no binding; binding result (FLT3): no binding; binding result (CSF-1R): no binding
2.449.1.3 (antibody, V domains shown, identified by its values; also called mAb 2.449.1.3) VH: QVQLVESGGGLVKPGGSLRLSCAASGFTFSDYYMNWIRQAPGKGLEWVSYISSSGSIIYYADSVKGRFTISRDNAKNSLYLQMNSLRAEDTAVYYCAREGRIAARGMDVWGQGTTVTVSS VL: DIQMTQSPSSLSASVGDRVSITCRPSQSFSRYINWYQQKPGKAPKLLIHAASSLVGGVPSRFSGSGSGTDFTLTISSLQPEDFATYYCQQTYSNPPITFGQGTRLEMK | no binding (tested: 10 ug/ml) | 179 ng/mL | 237 ng/mL | 99% | 0.14 nM | 6.16e-05 s⁻¹ | 440000 M⁻¹ s⁻¹ | – | – | – | 1.2 nM | 1.57 nM | Kd [10]: 0.052 nM; IC50 [3]: 0.044 µg/mL; PTYR Assay IC50 [4]: 0.021 µg/mL

Second part, led by results:

binding result [1] | Proliferation Assay: IC50 ng/ml (1-6-06) [2] | Proliferation Assay: IC50 ng/ml (1-23-06) [2] | pTyr Assay: % Inhibition @ 2 µg/ml [2] | Kd [5] | koff [5] | kon [5] | PROLIFERATION ASSAY: MG-63 CELLS, IC50 [6] | Average pTyr Inhibition [7] | Kd [8] | Proliferation Assay: IC50 (1-6-06) [2] | Proliferation Assay: IC50 (1-23-06) [2] | Binder | further results
no binding (tested: 10 ug/ml) | 1080 ng/mL | 649 ng/mL | 97% | – | – | – | – | – | – | – | – | 2.351.3 (antibody, V domains shown) VH: QVQLVQSGAEVKKPGASVKVSCKASGYTFIGYYLHWVRQAPGQGLEWMGSINPNSGGTNYAQKFQGRVTMIRDTSINTAYMELSRLRSDDTAVYYCARDKRITMVRGVHYLYYGWDVWGQGTTVTVSS VL: DIQMTQSPSSLSASVGDRVTITCRASQVISNYLAWYQQKPGKVPQLLIYAASTLQSGVPSRFSGSGSGTDFTLTISSLQPEDVATYYCQNYKSAPWTFGQGTKVEIK | –
– | – | – | – | – | – | – | 2.1 nM | 99% | 0.057 nM | – | – | 2.998.2 (antibody, V domains shown) VH: QLQLQESGPGLVKPSETLSLTCTVSGDSISSFIYYWGWIRQPPGKGLEWIGTIYYSGSTYYNPSLKSRVTISVDTSKNQFSLKLRSVTAADTAVYYCARHHWVFDYWGQGTQVTVSS VL: DIVLTQFPDFQSVTPKEKVTITCRASQVIGSSLHWYQQKPDQSPKLLIKYASQSFSGVPSRFSGSGSGTDFTLTINSLEVEDAATYYCHQSTILPWTFGQGTKVEVK | –
no binding (tested: 10 ug/ml) | 551 ng/mL | 558 ng/mL | 99% | – | – | – | – | – | – | 3.7 nM | 3.73 nM | 2.737.1.4 (antibody, V domains shown) VH: QVQLVESGGGLVKPGGSLRLSCAASGFTFRDYYMSWIRQAPGKGLEWVAFISSSGSIIYYADSVKGRFTISRDNAKNSLFLQMNSLRAEDTAVYYCARDGHIAARGMDVWGQGTTVTVSS VL: DIQMTQSPSSLSASVGDRVTITCRASQSINKYINWYQQKPGKAPKLLIYAASSLQSGVPSRFNGSGSGTDFTFTINTLQPEDFATYYCQQTYSTPPITFGQGTRLEIK | –
